Assay results published in patent publication US20020193564A1, “Oligomeric chaperone proteins” (priority 1999, published 2002).
Like-named read-outs stand apart in the source and are kept apart here.

Tests used:
[1] = test system: mutant Huntingdon exon 1-expressing PC12 and SH-SY5Y cells; test: Inclusion formation and cell death, mutant Huntingdon exon 1; format: cell-based; conditions: overexpression
Description: These phenomena have been studied by transiently transfecting part of Huntingdon exon 1 in COS-7, PC12, and SH-SY5Y cells. Inclusion formation was not seen with constructs expressing 23 glutamines but was repeat length and time dependent for mutant constructs with 43-74 repeats. HSP70, HSP40, the 20S proteasome and ubiquitin colocalized with inclusions. […] Thus, inclusion formation may be enhanced in polyglutamine diseases, if the pathological process results in proteasome inhibition or a heat-shock response. […] To our knowledge, this is the first report of an HSP increasing aggregation of an abnormally folded protein in mammalian cells and expands the current understanding of the roles of HDJ-2yHSDJ in protein folding (See Wyttenbach, A. et al. (2000) Proc. Natl. Acad. Sci. USA 97, 2899-2903).
We have tested MC72 in the same system.

[2] = test system: mutant Huntingdon exon 1-expressing PC12 and SH-SY5Y cells; conditions: overexpression; cited from earlier work
E. coli SV2 groEL44 = test: In vivo complementation of ts groEL44 at 43° C.; format: cell-based; conditions: plasmids pJC, relative to growth at 30° C.
Description: (§1) In vivo Complementation Experiments.
(§2) Complementation experiments were performed by transforming electro-competent SV2 or SV6 cells with the pJC series of expression vectors and plating an aliquot of the transformation reactions directly at 43° C. The percentage of viable cells relative to the growth at 30° C. was determined. A representative number of clones which grew at 43° C. were incubated in absence of any selective markers at permissive temperature. After prolonged growth the loss of the pJC plasmids and the ts phenotype were verified. Each experiment was performed in duplicate. Plasmids carrying no groE genes or encoding the GroE proteins were used as negative or positive controls, respectively.

E. coli SV6 groEL673 = test: In vivo complementation of ts groEL673 at 43° C.; format: cell-based; conditions: plasmids pJC, relative to growth at 30° C.
Description: as §1, §2

[3] = test system: AI90 (ΔgroEL::kan^R) [pBADEL] E. coli strain; test: Plating ability of AI90 on GroEL depletion at 37° C.; format: cell-based; design: key to Plating ability, 0.00 % L(+)arabinose: +++: growth identical to that in presence of 0.2% L(+)arabinose (100%), in terms of both number and size; ++: about 50% of the colonies relative to that in presence of 0.2% L(+)arabinose; +: about 30% of the colonies; +/−: ≦5% of the colonies and size reduced relative to that in presence of 0.2% L(+)arabinose; −: no visible colonies
Description: AI90 (ΔgroEL::kan^R) [pBAD-EL] cells were transformed with the pJC vector series. Transformants were selected at 37° C. on LB supplemented with 50 μg.ml^−1 of kanamycin, 120 μg.mL^−1 of ampicillin, 25 μg.mL^−1 of chloramphenicol and 0.2% L(+)arabinose. Depletion of GroEL protein was analysed at 37° C. by plating the same quantity of AI90 [PBAD-EL+pJC vectors] cells on LB plates containing 1% D(+)glucose or various amount of arabinose.
Each experiment was performed in triplicate. Plasmids carrying no groE genes or encoding the GroE proteins were used as negative or positive controls, respectively.

bacteriophage λ = test: Growth of bacteriophage λ in transformed groEL strains; format: cell-based, bacteriophage λ (b2cI) in E. coli; design: key to Growth of bacteriophage λ, SV1 (groEL^+) / Growth of bacteriophage λ, SV2 groEL44: +++: normal plaque-forming ability relative to wild-type groEL^+ strain, in terms of both number and size; ++: 5-fold fewer plaques relative to wild-type groEL^+ strain, or both; 10-fold fewer plaques, or plaque size reduced relative to wild-type groEL^+ strain, or both; +/−: 10^2-fold fewer plaques and plaque size reduced relative to wild-type groEL^+ strain; no visible plaques (<10^−4); conditions: 30° C.
Description: (§3) The E. Coli strains used in this study were: C41(DE3), a mutant of BL21(DE3) capable of expressing toxic genes (Miroux, B. & Walker, J. E. (1996) J. Mol. Biol. 260, 289-298); SV2 (B178groEL44), SV3 (B178groEL59) and SV6 (B178groEL673): isogenic strains carrying temperature-sensitive alleles of groEL; SV1(=B178) (Georgopoulos, C., Hendrix, R. W., Casjens, S. R. & Kaiser, A. D. (1973) J. Mol. Biol. 76, 45-60), A190 (ΔgroEL::kan^R) [pBAD-EL] (Ivic, A., Olden, D., Wallington, E. J. & Lund, P. A. (1997) Gene 194, 1-8), and TG1 (Gibson, T. J. (1984) Ph.D. thesis, University of Cambridge, U.K). Bacteriophage λb2cI (Zeilstra-Ryalls, J., Fayet, O., Baird, L. & Georgopoulos, C. (1993) J. Bacteriol. 175, 1134-1143) was used according to standard methods (Arber, W., Enquist, L., Hohn, B., Murray, N. E. & Murray, K. (1983) in Lambda II., ed. R. W. Hendrix, J. W. r., F. W. Stahl and R. A. Weisberg (Cold Spring Harbor Laboratory, Cold Spring Harbor, N.Y.), pp. 433-466); plaque formation was assayed at 30° C. T4D0, a derivative of bacteriophage T4 (Zeilstra-Ryalls, J., Fayet, O., Baird, L. & Georgopoulos, C. (1993) J. Bacteriol. 175, 1134-1143), was used according to standard methods (Karam, J. D. (1994) Molecular biology of bacteriophage T4. (American Society for Microbiology, Washington, D.C.)); plaque formation was assayed at 37° C.

bacteriophage T4 = test: Growth of bacteriophage T4 in transformed groEL strains; format: cell-based, bacteriophage T4 (T4D0) in E. coli; design: key to Growth of bacteriophage T4, SV1 (groEL^+) / Growth of bacteriophage T4, SV2 groEL44 / Growth of bacteriophage T4, SV3 GroEL59 / Growth of bacteriophage T4, SV6 groEL673: +++: normal plaque-forming ability relative to wild-type groEL^+ strain, in terms of both number and size; ++: 5-fold fewer plaques relative to wild-type groEL^+ strain, or both; 10-fold fewer plaques, or plaque size reduced relative to wild-type groEL^+ strain, or both; +/−: 10^2-fold fewer plaques and plaque size reduced relative to wild-type groEL^+ strain; no visible plaques (<10^−4); conditions: 37° C.
Description: as §3

yeast Hsp104: yeast chaperone Hsp104
cell death [1]: reduced | inclusion formation [1]: reduced inclusion formation

B1: GroEL(191-345): GroEL(191-345) minichaperone monomer (protein, UniProt P0A6F5 191-345, looked up, fragment)
chain: EGMQFDRGYLSPYFINKPETGAVELESPFILLADKKISNIREMLPVLEAVAKAGKPLLIIAEDVEGEALATLVVNTMRGIVKVAAVKAPGFGDRRKAMLQDIATLTGGTVISEEIGMELEKATLEDLGQAKRVVINKDTTTIIDGVGEEAAIQGR
modifications: apical domain
notes: GroEL(191-345) minichaperone monomer
cell death [2]: reduced cell death | proportion of cells with inclusions / inclusion formation [2]: reduced slightly but significantly

B2: sht-GroEL(191-376): histidine-tagged (short histidine tail; sht) minichaperone GroEL(191-376) (protein, UniProt P0A6F5 191-376, looked up, fragment)
chain: EGMQFDRGYLSPYFINKPETGAVELESPFILLADKKISNIREMLPVLEAVAKAGKPLLIIAEDVEGEALATLVVNTMRGIVKVAAVKAPGFGDRRKAMLQDIATLTGGTVISEEIGMELEKATLEDLGQAKRVVINKDTTTIIDGVGEEAAIQGRVAQIRQQIEEATSDYDREKLQERVAKLAGGV
modifications: short His tag
Relative colony forming ability, SV2 groEL44 (E. coli SV2 groEL44): <10^−4 | Relative colony forming ability, SV6 groEL673 (E. coli SV6 groEL673): <10^−4 | Plating ability, 0.00 % L(+)arabinose ([3]; 0.00% arabinose): − | Plating ability, 0.01 % L(+)arabinose ([3]; 0.01% arabinose): +/− (≦5% of the colonies and size reduced relative to that in presence of 0.2% L(+)arabinose) | Plating ability, 0.10 % L(+)arabinose ([3]; 0.10% arabinose): + (about 30% of the colonies) | Plating ability, 0.15 % L(+)arabinose ([3]; 0.15% arabinose): ++ (about 50% of the colonies relative to that in presence of 0.2% L(+)arabinose) | Growth of bacteriophage λ, SV1 (groEL^+) (bacteriophage λ; SV1): +++ | Growth of bacteriophage λ, SV2 groEL44 (bacteriophage λ; SV2): − (no visible plaques (<10^−4)) | Growth of bacteriophage λ, SV3 GroEL59 (bacteriophage λ; SV3): − (no visible plaques (<10^−4)) | Growth of bacteriophage λ, SV6 groEL673 (bacteriophage λ; SV6): − (no visible plaques (<10^−4)) | Growth of bacteriophage T4, SV1 (groEL^+) (bacteriophage T4; SV1): +++ | Growth of bacteriophage T4, SV2 groEL44 (bacteriophage T4; SV2): − (no visible plaques (<10^−4)) | Growth of bacteriophage T4, SV3 GroEL59 (bacteriophage T4; SV3): +++ | Growth of bacteriophage T4, SV6 groEL673 (bacteriophage T4; SV6): − (no visible plaques (<10^−4))
